Results taken from PMC2860547.

Target: Snf1 protein tagged with 3 copies of the HA epitope (wild type) (S. cerevisiae) (UniProt P06782)
Assay: co-IP

UniProt P06782, sequence (P06782 whole entry): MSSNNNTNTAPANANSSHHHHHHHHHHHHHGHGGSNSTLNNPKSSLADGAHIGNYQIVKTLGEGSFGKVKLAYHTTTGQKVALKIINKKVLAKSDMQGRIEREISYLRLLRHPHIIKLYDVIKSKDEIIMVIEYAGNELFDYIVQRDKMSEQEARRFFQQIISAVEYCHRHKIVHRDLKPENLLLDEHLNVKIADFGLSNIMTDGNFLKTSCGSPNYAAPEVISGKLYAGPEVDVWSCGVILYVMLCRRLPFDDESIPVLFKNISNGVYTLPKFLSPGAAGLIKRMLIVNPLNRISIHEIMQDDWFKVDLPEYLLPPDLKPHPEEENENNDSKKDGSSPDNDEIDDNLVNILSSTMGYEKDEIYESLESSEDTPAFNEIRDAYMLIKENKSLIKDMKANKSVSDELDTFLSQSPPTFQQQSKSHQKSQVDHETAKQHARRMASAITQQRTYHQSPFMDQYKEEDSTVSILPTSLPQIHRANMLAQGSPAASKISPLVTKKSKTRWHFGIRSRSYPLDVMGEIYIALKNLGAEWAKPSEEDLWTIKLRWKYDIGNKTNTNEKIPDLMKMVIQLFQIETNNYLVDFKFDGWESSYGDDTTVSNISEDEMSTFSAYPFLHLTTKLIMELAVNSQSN

“Reg1-IF (I466M, F468A) (from UniProt Q00816 1-1014) (natural protein)” was tested, and the fold reduction of associated Reg1 against wild type Reg1 was 30 fold.
